Assay results from publication PMC10571083, “An Analysis of Nucleotide–Amyloid Interactions Reveals Selective Binding to Codon-Sized RNA”.
No end group written: not given here.

Experiments:
[1] = test system: peptide 7 amyloid (designed); test: pelleting/HPLC; details: citrate-phosphate buffer, pH 3 (or pH series), room temperature, overnight, 100 uM peptide with 25 or 50 uM oligo, Kd: 50 uM peptide with 5-200 uM oligo …
[2] = test system: peptide 4 amyloid (designed); test: pelleting/HPLC; details: pH 3, 100 uM peptide, 50 uM RNA; citrate-phosphate buffer, pH 3 (or pH series), room temperature, overnight, 100 uM peptide with 25 or 50 uM oligo; Kd: 50 uM peptide with 5-200 uM oligo …
VAQAQINI-NH2 amyloid = target: T1, VAQAQINI-NH2 amyloid (designed); test: pelleting/HPLC; Bmax 0.147; citrate-phosphate buffer, pH 3 (or pH series), room temperature, overnight, 100 uM peptide with 25 or 50 uM oligo; Kd: 50 uM peptide with 5-200 uM oligo; supern; details: single strand
T1 chain: VAQAQINI-NH2

Work on GUG [pGUG] yielded a Kd ([1]; 5' phosphate) of 82 µM and a binding signal ([1]; pH 3, 100 uM peptide, 25 uM RNA, peptide 7 or 9 not specified, 5' phosphate) of over 40 % bound.

Molecule GUGUGU [[GU]3] has a Kd [1] of 0.856 µM.

For GUGUG [pGUGUG], the Kd ([1]; 5' phosphate) was 0.0749 µM.

With GUGU [pGUGU] the Kd ([1]; 5' phosphate) was 1.29 µM.

For GUGUGUG [[GU]3G], the binding signal [2] was 100 % bound and the Kd [1] was 0.0486 µM.

GUG [DNA pGUG] showed a Kd ([1]; 5' phosphate, DNA backbone (printed with U)) of 117 µM.

GUCA (ssRNA, 5' and 3' phosphate) [pGUCAp] gave a Kd (VAQAQINI-NH2 amyloid) of 1.95 µM.
